From publication PMC4526461 (The Biochemical journal, 2015)
Where “and” joins values, the source holds several entries; their conditions need not be identical. Equal entries are not always repeated.

Molecular target: the molecule itself
Test: non-reducing SDS/PAGE and Western blot

| Protein | stoichiometry N | decrease in multimer to monomer ratio against wild-type [%] |
| --- | --- | --- |
| recombinant mouse neutral sphingomyelinase-2 with C-terminal FLAG and 6xHis tags (pET-32a-nSMase-2-FLAG-6xHis), expressed in Rosetta2 (DE3) pLysS (enzyme, UniProt Q9JJY3 1-655, looked up) MVLYTTPFPNSCLSALHAVSWALIFPCYWLVDRLLASFIPTTYEKRQRADDPCCLQLFCTVLFTPVYLALLVAALPFAFLGFIFWSPLQSARRPYSYSRLEDKNPAGGAALLSEWKGTGAGKSFCFATANVCLLPDSLARLNNVFNTQARAKEIGQRIRNGAARPQIKIYIDSPTNTSISAASFSSLVSPQGGDGSRAVPGSIKRTASVEYKGDGGRHPSDEAANGPASGEQADGSLEDSCIVRIGGEEGGRPQEADDPAAGSQARNGAGGTPKGQTPNHNQRDGDSGSLGSPSASRESLVKARAGQDSGGSGEPGANSKLLYKTSVVKKAAARRRRHPDEAFDHEVSAFFPANLDFLCLQEVFDKRAAAKLKEQLHGYFEYILYDVGVYGCHGCCNFKCLNSGLFFASRYPVMDVAYHCYPNGCSFDALASKGALFLKVQVGSTPQDQRIVGYIACTHLHAPPEDSAVRCEQLDLLQDWLADFRKSTSSTSTANPEELVVFDVICGDLNFDNCSSDDKLEQQHSLFTRYKDPCRLGPGEEKPWAIGTLLDTNGLYDEDVCTPDNLQKVLESEEGRREYLAFPTSKSPGAGQKGRKDLLKGNGRRIDYMLHAEEGLCPDWKAEVEEFSFITQLSGLTDHLPVAMRLMVSAGEEEA | 2 and 3 | – |
| nSMase-2 single-point mutant Cys561Ser (enzyme, mouse, UniProt Q9JJY3 1-655, looked up) MVLYTTPFPNSCLSALHAVSWALIFPCYWLVDRLLASFIPTTYEKRQRADDPCCLQLFCTVLFTPVYLALLVAALPFAFLGFIFWSPLQSARRPYSYSRLEDKNPAGGAALLSEWKGTGAGKSFCFATANVCLLPDSLARLNNVFNTQARAKEIGQRIRNGAARPQIKIYIDSPTNTSISAASFSSLVSPQGGDGSRAVPGSIKRTASVEYKGDGGRHPSDEAANGPASGEQADGSLEDSCIVRIGGEEGGRPQEADDPAAGSQARNGAGGTPKGQTPNHNQRDGDSGSLGSPSASRESLVKARAGQDSGGSGEPGANSKLLYKTSVVKKAAARRRRHPDEAFDHEVSAFFPANLDFLCLQEVFDKRAAAKLKEQLHGYFEYILYDVGVYGCHGCCNFKCLNSGLFFASRYPVMDVAYHCYPNGCSFDALASKGALFLKVQVGSTPQDQRIVGYIACTHLHAPPEDSAVRCEQLDLLQDWLADFRKSTSSTSTANPEELVVFDVICGDLNFDNCSSDDKLEQQHSLFTRYKDPCRLGPGEEKPWAIGTLLDTNGLYDEDVSTPDNLQKVLESEEGRREYLAFPTSKSPGAGQKGRKDLLKGNGRRIDYMLHAEEGLCPDWKAEVEEFSFITQLSGLTDHLPVAMRLMVSAGEEEA | – | ~50 |
| nSMase-2 single-point mutant Cys617Ser (enzyme, mouse, UniProt Q9JJY3 1-655, looked up) MVLYTTPFPNSCLSALHAVSWALIFPCYWLVDRLLASFIPTTYEKRQRADDPCCLQLFCTVLFTPVYLALLVAALPFAFLGFIFWSPLQSARRPYSYSRLEDKNPAGGAALLSEWKGTGAGKSFCFATANVCLLPDSLARLNNVFNTQARAKEIGQRIRNGAARPQIKIYIDSPTNTSISAASFSSLVSPQGGDGSRAVPGSIKRTASVEYKGDGGRHPSDEAANGPASGEQADGSLEDSCIVRIGGEEGGRPQEADDPAAGSQARNGAGGTPKGQTPNHNQRDGDSGSLGSPSASRESLVKARAGQDSGGSGEPGANSKLLYKTSVVKKAAARRRRHPDEAFDHEVSAFFPANLDFLCLQEVFDKRAAAKLKEQLHGYFEYILYDVGVYGCHGCCNFKCLNSGLFFASRYPVMDVAYHCYPNGCSFDALASKGALFLKVQVGSTPQDQRIVGYIACTHLHAPPEDSAVRCEQLDLLQDWLADFRKSTSSTSTANPEELVVFDVICGDLNFDNCSSDDKLEQQHSLFTRYKDPCRLGPGEEKPWAIGTLLDTNGLYDEDVCTPDNLQKVLESEEGRREYLAFPTSKSPGAGQKGRKDLLKGNGRRIDYMLHAEEGLSPDWKAEVEEFSFITQLSGLTDHLPVAMRLMVSAGEEEA | – | ~50 |
